Substitutions are numbered along the chain they refer to. Values belong to the binder of their own block, whether it stands above or below them.
Legend:
[1] = molecular target: T1, MUC4-Tn glycopeptide CTIPSTAMHTRSTAAPIPILP (SEQ ID NO:154) with O-linked GalNAc on the serine and threonine … (not fully specified; O-linked GalNAc on Ser 12 and Thr 13; N-terminal biotin (Table 6); C-terminal amide in the form described in the SPR/BLI methods); test: SPR (Biacore); antibody immobilized, peptide as analyte
T1 construct: Synthetic glycopeptide made by FMOC synthesis; also called MUC4 glycopeptide; Tn-glycosylated MUC4 peptide
T1 peptide: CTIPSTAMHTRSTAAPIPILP
Excerpt: Antibody affinity assays can be carried out using surface plasmon resonance (e.g., using a Biacore system (Cytiva)). In a surface plasmon resonance assay, one or more antibodies can be immobilized onto a biosensor and presented with an analyte (e.g., the glyco-MUC4 peptide […]-amide (the amino acid portion of which is SEQ ID NO:154; bold and underlined residues indicate GalNAc glycosylation sites) or a negative control analyte such as un unglycosylated MUC4 peptide ([…]-amide (the amino acid portion of which is SEQ ID NO:155)). The antibodies are contacted with different concentrations of the analyte, for example concentrations of 2.5 nM, 7.4 nM, 22 nM, 66 nM and 200 nM. Affinity is measured using multi-cycle kinetics in triplicate for each analyte concentration, with 1 min association and 5 min dissociation. […] The affinity is determined by fitting the binding curve to a specific model: kinetic fit (1:1 model) or if applicable heterogenous ligand binding model.

MUC1-Tn [2] = test: BLI (Octet), apparent affinity; peptide on biosensor; error +/- 5.9 µM (r8c9)
[3] = molecular target: T1, MUC4-Tn glycopeptide …; test: BLI (Octet), apparent affinity; peptide on biosensor; +/- error at 95% confidence; same value as Table 7
[4] = molecular target: T1, MUC4-Tn glycopeptide …; test: BLI (Octet), apparent affinity; peptide on biosensor; error +/- 0.251 nM at 95% confidence (r8c5)
[5] = molecular target: T2, Tn-glycosylated MUC4 on cells (MUC4-Tn; COSMC-KO cells, cancer tissue) (UniProt Q99102 29-5412, limits assumed, truncated Tn O-glycans (GalNAc-alpha1-O-Ser/Thr), from knock-out of the COSMC chaperone or in cancer tissue); test: flow cytometry on T3M4 COSMC-KO (T3M4-M) cells
T2 construct: whole, on cells; also called Tn-MUC4; glyco-MUC4
Protocol: Adherent cells were dissociated with TrypLE select (Gibco) and washed from flask surface with cell culture media (RPMI w/L-glutamine, 1% PenStrep, & 10% FBS). Cells were washed several times by centrifugation at 300*g for 5 min at 4° C. followed by resuspension in PBS with 1% BSA (PBS/1% BSA). Cells were resuspended between 5×10⁵ cells/ml to 2×10⁶ cell/ml and then distributed into a 96 well U-bottom plate. Diluted commercial antibody (0.25-2 ug/ml), or purified humanized 2D5 candidates were added to T3M4 COSMC-KO cells and incubated for 1 hr on ice. Following several washes with PBS/1% BSA, cells were incubated for 30 min on ice with a 1:1600 dilution of AlexaFluor647 conjugated F(ab)₂ goat anti-human IgG Fcγ (JacksonImmunoResearch). Cells were washed again with PBS/1% BSA and then fixed in 1% formaldehyde in PBS/1% BSA. Cells were analysed on either a 2 or 4 laser Attune NXT flow cytometer. Data was processed in FlowJo Software.

[6] = molecular target: T1, MUC4-Tn glycopeptide …; test: BLI (Octet), MUC4 glycopeptide on biosensor
[7] = molecular target: T3, MUC4-Tn(T) peptide Biotin-CTIPSTAMHTRSTAAPIPILP (SEQ ID NO:198) (GalNAc on a threonine only (by the label Tn(T); the bold/underline marking of the site is lost in the text); N-terminal biotin); test: BLI (Octet), apparent affinity; peptide on biosensor; error printed as 1 pM (r10c7)
T3 construct: Singly glycosylated form of the MUC4 peptide
T3 peptide: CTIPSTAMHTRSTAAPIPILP

MUC1-Tn [8] = test: BLI (Octet), apparent affinity; peptide on biosensor; error +/- 7.6 µM (r10c9)
[9] = molecular target: T1, MUC4-Tn glycopeptide …; test: BLI (Octet), apparent affinity; peptide on biosensor; error +/- 2.32 nM (r10c5)
[10] = molecular target: T3, MUC4-Tn(T) peptide …; test: BLI (Octet), apparent affinity; peptide on biosensor; error +/- 66 µM (r12c7)
MUC1-Tn [11] = test: BLI (Octet), apparent affinity; peptide on biosensor; error +/- 3.7 µM (r12c9)
[12] = molecular target: T1, MUC4-Tn glycopeptide …; test: BLI (Octet), apparent affinity; peptide on biosensor; error +/- 10 nM (r12c5)

Kd [1]: 3.96 nM
Kd (MUC1-Tn [2]): 2900 nM
Kd [3]: 2 nM
Kd [4]: 2 nM
B1: 2D5.2F6.2C11 (antibody, V domains shown)
VH: QVQLQQSDAELVKPGASVRISCKAYGYTFTDHAIHWVKQKPEQGLEWLGYISPGNDDIQYNAKFKGKATLTADKSSSTAYMQLNSLTSDDSAVYFCKRSMANSFDYWGQGTTLTVSS
VL: NIMLTQSPSSLAVSAGEKVTMSCKSSQSVLYSSDQKNYLAWYQQKPGQSPKLLIYWASTRESGVPDRFTGSGSGTDFTLTISNVQAEDLAVYYCHQYLSSYTFGGGTKLEIK
notes: Murine monoclonal antibody from a hybridoma (Balb/c mice immunized with the KLH-conjugated Tn-MUC4 glycopeptide); also called mAb 2D5

EC50 [5]: 0.0177 µg/mL
Kd [6]: 3.2 nM
B2: 2D5-cAb Chimeric antibody (human Fc domain + murine variable domain) (antibody, V domains shown)
VH: B1 VH
VL: B1 VL

Kd [1]: 3.93 nM
Kd [7]: 560 nM
Kd (MUC1-Tn [8]): 2800 nM
Kd [9]: 2.32 nM
B3: 5B8.2A11.2C7 (antibody, V domains shown)
VH: QVQLQQSDAELVKPGASVKISCKASGYTFTDHAIHWVKQKPEQGLEWIGYFSPGNGDIKYNEKFKGKATLTADRSSSTANMHLNSLTSEDSAVYFCKRSMANYFDYWGQGTTLTVSS
VL: B1 VL with L4M, A12V, Q27H, D34N, R60K, E61N, N83S
notes: Murine monoclonal antibody from a hybridoma; also called mAb 5B8

Kd [1]: 3.56 nM
Kd [10]: 79000 nM
Kd (MUC1-Tn [11]): 2500 nM
Kd [12]: 50.2 nM
B4: 15F3.2D11.1E6 (antibody, V domains shown)
VH: B1 VH with K13E, R19K, K67R, Y106F
VL: B1 VL with Q85R
notes: Murine monoclonal antibody from a hybridoma; also called mAb 15F3

From US20250101126A1 (GO THERAPEUTICS, published 2025)
